The target in the series is TmHU (HU protein) (Thermotoga maritima) (UniProt P36206). In words: SPR. The note with it: transition midpoint of Hill curve, 50 mM sodium phosphate pH 7.5, 100 mM NaCl.

From US20050170504 come the findings set out here.

UniProt P36206, sequence (P36206 other isoform, or with tags, fused parts or gaps): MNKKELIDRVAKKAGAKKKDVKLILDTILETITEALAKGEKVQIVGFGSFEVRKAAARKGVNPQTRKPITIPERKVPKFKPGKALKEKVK

For orientation: Kd means the concentration at which binding is half-saturated. Low values mean tighter binding, high ones weaker binding. Where the note is “Hill coefficient 1.3”, 23 bp dsDNA fragment had a Kd of 73 nM.

Regarding 56 bp dsDNA fragment, the Kd (Hill coefficient 7.6) came out at 73 nM.
